B1: pRNA-HER2apt-siMED1: 3-WJ pRNA nanoparticle bearing a HER2-targeting RNA aptamer and two different MED1 siRNAs; strands p1 SEQ ID NO: 3, p2 SEQ ID NO: 4 (nucleic acid)
chain 1: GGACAGUGAAAGUGAGUCAAAGGAUCAAUCAUGGCCAAAGAUGUUACUUUGAGAGCCUU
chain 2: GGCUCUCAAAGUAACAUCUAAGGCCAUGUGUAUGUGGGGGGAGGACGAUGCGGUCUGCUGUGCUUGAUAUGCCCCAGACGACUCGCCCCCCACAUACUUUGUUGAUCCAAUGACUCACUUUCACUGUCCUU
modifications: 2'-F modification; third strand may lack entry; pRNA-HER2apt-siMED1, p1; pRNA-HER2apt-siMED1, p2
B2: pRNA-HER2apt^mut-siMED1: control pRNA nanoparticle with mutant HER2 aptamer; strands p1 SEQ ID NO: 5, p2 SEQ ID NO: 6 (nucleic acid)
chain 1: GGACAGUGAAAGUGAGUCAAAGGAUCAAUCAUGGCCAAAGAUGUUACUUUGAGAGCCUU
chain 2: GGCUCUCAAAGUAACAUCUAAGGCCAUGUGUAUGUGGGAUGAGGAGUAUGAAGAUACCUGUACUUGAUAUGCCCCAGACGACAUUCCCCCCACAUACUUUGUUGAUCCAAUGACUCACUUUCACUGUCCUU
modifications: pRNA-HER2apt(mut)-siMED1, p1; pRNA-HER2apt(mut)-siMED1, p2

Test system: BT474 orthotopic xenograft tumors
Experiment: In vivo targeting and biodistribution imaging of AF647-labeled nanoparticles
Set-up: species or system mice
Conditions: for signals in liver and kidney, biodistribution: AF647 fluorescence of excised organs; for accumulation in the xenograft tumors, biodistribution of excised organs and tumors: AF647 fluorescence of excised tumors; for localization in frozen tumor sections (penetration to tumor cells): confocal microscopy, microvessels stained with anti-CD31
Description: FIG. 2A) Confocal microscopy analyses of the internalization of AF647-labeled control and pRNA-HER2apt-siMED1 nanoparticles by BT474 cells. Scale bar: 10 μm. FIG. 2B) Flow cytometry assays of the cellular uptake of AF647-labeled control and pRNA-HER2apt-siMED1 nanoparticles by BT474 cells. FIG. 2C) IVIS Lumina live imaging of BT474 orthotopic xenograft mice 24 hrs after i.v. injection of indicated AF647-labeled pRNA nanoparticles (10 mg/Kg). FIG. 2D) Major organs and tumors of above mice were excised and imaged for AF647 fluorescence. FIG. 2E) Frozen tumor sections were examined for localization of AF647-labeled pRNA nanoparticles (red) using confocal microscopy. The blood vessels were stained with anti-CD31 primary antibody and Alexa488-conjugated secondary antibody (green). The nuclei were stained with DAPI (blue). Scale bar: 50 μm. FIG. 2F) The fluorescence intensity of AF647-labeled pRNA nanoparticles (red) in frozen tumor sections was quantified with Image-pro Plus software.
Migration and metastasis assay. The 8-μm-pore-size polycarbonate membrane, which separates the two chambers of a 6.5-mm Transwell (Costar), was coated with or without 1:8 DMEM-diluted Matrigel (Corning). Transwell assay was performed as previously described.^57 Briefly, BT474 cells were treated with pRNAs alone or together with 4-hydroxy-tamoxifen (4-OHT) for 48 h and starved with serum-free DMEM containing 0.2% BSA overnight. On the next day, cells were collected and 2×10^5 cells were seeded to the upper chamber of Transwell. The lower chamber was filled with 600 μL DMEM medium containing 10% FBS. After incubation at 37° C. for 24 h, cells on the membranes were fixed and stained with 0.1% crystal violet in 20% ethanol solution. Cells at top side of membranes were removed completely, and cells at the bottom side were examined with an Olympus SZX12 microscope and counted. • Mammosphere culture and breast cancer stem cell analyses. BT474 cells were treated with pRNAs for 48 h. Then, cells were suspended in DMEM/F12 medium supplemented with 1×B27 (Thermo Fisher), 20 ng/mL bFGF and 20 ng/mL EGF (R&D), and added into 24-well ultralow attachment plates. After treatment with or without 1 μM 4-OHT for 7 days, mammosphere formation was recorded using an Axiovert S100 TV inverted microscope (Zeiss). Xenograft tumor tissues were cut into small pieces and digested with trypsin and collagenase at 37° C. for 1 h, and tumor cells were collected and rinsed with pre-cold PBS. All cells were stained with FITC-conjugated anti-CD44 antibody and PE-conjugated anti-CD24 antibody (BD Pharmingen) in the dark on ice for 30 min. After resuspension with 0.5 mL PBS buffer, CD44^+/CD24^−/low cell population was analyzed by flow cytometry. • Orthotopic xenograft breast tumor mouse model, in vivo imaging and anti-tumor therapy. Six-week-old female athymic nude mice were purchased from Charles River Laboratories, and all animal procedures were performed under IACUC-approved protocols at the University of Cincinnati. Athymic nude mice were orthotopically injected with 1×10^7 BT474-luc cells mixed with matrigel into the fat pads of the forth pair of mammary glands. When the tumor sizes reached 100-150 mm^3, the mice were randomly divided into four groups (4/group) and intravenously (i.v.) injected with pRNAs (4 mg/Kg) once a week for three weeks. For tamoxifen treatments, 0.5 mg tamoxifen (Sigma) dissolved in sesame oil was intraperitoneally (i.p.) injected into mice 5 days a week for three weeks. The tumor volume was monitored every 3 days, and tumor size was calculated using the formula: volume=0.5×(width)^2×(length). For in vivo pRNA nanoparticle targeting and tumor imaging, mice were i.v. injected with AF647-conjugated pRNA nanoparticles or i.p. injected with D-luciferin and imaged using the IVIS Lumina imaging system with Living Images 3.0 software (Caliper Life Sciences). […]

| Molecule | accumulation in the area of the xenograft tumor, live animal imaging (AF647-conjugated, 10 mg/Kg i.v., 24 hrs) | signals in liver and kidney, biodistribution | accumulation in the xenograft tumors, biodistribution of excised organs and tumors | localization in frozen tumor sections (penetration to tumor cells) |
| --- | --- | --- | --- | --- |
| B1 | strongly accumulated | low levels of residual signals | predominant accumulation | very effectively penetrated to tumor cells |
| B2 |  | low levels of residual signals | not | remained in the microvessels |

From US11110182B2, “Multifunctional RNA nanoparticles and methods for treating cancer and therapeutic resistant cancer” (University of Cincinnati, priority 2016, dated 2021)
